Source: patent publication US20170369572A1

Target: human CD47 on CCRF-CEM cells (human) (UniProt Q08722)
Test: flow cytometry on CCRF-CEM cells, MFI against concentration, one site specific binding with Hill slope

Kd: 16 nM
B1: B6H12, mu anti-hu CD47 (antibody, from another filing, V domains shown)
VH: EVQLVESGGDLVKPGGSLKLSCAASGFTFSGYGMSWVRQTPDKRLEWVATITSGGTYTYYPDSVKGRFTISRDNAKNTLYLQIDSLKSEDTAIYFCARSLAGNAMDYWGQGTSVTVSS
VL: DIVMTQSPATLSVTPGDRVSLSCRASQTISDYLHWYQQKSHESPRLLIKFASQSISGIPSRFSGSGSGSDFTLSINSVEPEDVGVYYCQNGHGFPRTFGGGTKLEIK
